Results on one protein are retold here after publication doi:10.1101/2020.05.13.092544 (bioRxiv, 2020).

This data set concerns the molecule itself. The data set is described as follows: SDS-PAGE.

B1: His6-tagged periplasmic copper binding loop (sensor domain) of CopS, CopS(34-151) (domain or fragment, Pseudomonas aeruginosa, UniProt Q9I033 34-151, looked up)
chain: FSRAIDEHFVELDHMAMSAKLAVFRDELRGLGSEQQMRRREAELLRELARHPDLGLRLNGPDGNLWFERLPQPAHPGLPANRELGAPLEPGNDASPRLTVILDISHHQHFLQRMRQLI
As for B1, the binding result was “binds”.
